For data set [1], the target named is T1, TssA1 fused to the adenylate cyclase T25 or T18 subunit (P. aeruginosa, UniProt Q9I750 1-344).
T1 sequence: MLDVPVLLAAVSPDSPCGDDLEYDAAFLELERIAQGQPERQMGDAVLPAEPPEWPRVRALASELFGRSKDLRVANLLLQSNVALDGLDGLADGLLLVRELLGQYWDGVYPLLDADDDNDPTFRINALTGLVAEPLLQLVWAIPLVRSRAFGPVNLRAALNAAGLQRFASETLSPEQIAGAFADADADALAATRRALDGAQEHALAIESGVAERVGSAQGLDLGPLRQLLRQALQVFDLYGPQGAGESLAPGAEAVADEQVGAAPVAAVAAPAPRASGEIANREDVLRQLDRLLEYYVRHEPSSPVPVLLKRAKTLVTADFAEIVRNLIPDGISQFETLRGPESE
Description: two-hybrid; bacterial two-hybrid (BTH), T25 and T18 adenylate cyclase fusions in E. coli DHM1; β-galactosidase activity in Miller units and X-gal LB agar plates. Particulars: partners not purified.

Data set [2] deals with the molecule itself. Description: AUC; sedimentation velocity of His6-TssA1 at 0.8, 0.56 and 0.32 mg/ml, 20,000 and 30,000 rpm, 20 °C, 25 mM Tris-HCl pH 7.5, 200 mM NaCl; c(s) by SEDFIT.

Several values for one entry are separate records, joined by “and”; a condition that tells them apart may be missing. Identical values can stand only once.

B1: TssK1 fused to the adenylate cyclase T25 or T18 subunit (natural protein)
chain: MSWNNRVVWSEGMFLRPQHFQQHDRYLETLVDGRCRSLLAGGWGFSELKLDDALLTQGKLAIVSARGVLPDGTPFNIPADDPAPAPLNVEESLRDGIVYLGLPLKRVGTRDTVEEGEALGGARYVSQVQEVRDDNAAFESRAPVALGSQAFRLLTERDGLGEYAAVGVARVREKRADQALSLDEDYLPPVLDIAAAPPLASFAKELLGLLHQRGEALAGRVVASSAGGASEIADFLLLQLVNRAEALTGHLSRVRPLHPQELYRELVALAGEFCTFTASQRRPEEYPVYNHDDLAASFAPVMLALRQALATVIDAKAIAIPIVEKAYGVHVAMLSDRSLIDNASFVLVVRADVPGESLRGHFPQQAKVGSVEHIRDLVNLQLPGIGLLPMPVAPRQIPYHAGSTYFELDRGSAHWKQLTHSGGFAFHIAGQFPGLNLAFWAIRG
With B1, in data set [1], the “fold above control (β‐galactosidase activity)” value is about 20 fold.

B2: His6-TssA1 (natural protein)
chain: MLDVPVLLAAVSPDSPCGDDLEYDAAFLELERIAQGQPERQMGDAVLPAEPPEWPRVRALASELFGRSKDLRVANLLLQSNVALDGLDGLADGLLLVRELLGQYWDGVYPLLDADDDNDPTFRINALTGLVAEPLLQLVWAIPLVRSRAFGPVNLRAALNAAGLQRFASETLSPEQIAGAFADADADALAATRRALDGAQEHALAIESGVAERVGSAQGLDLGPLRQLLRQALQVFDLYGPQGAGESLAPGAEAVADEQVGAAPVAAVAAPAPRASGEIANREDVLRQLDRLLEYYVRHEPSSPVPVLLKRAKTLVTADFAEIVRNLIPDGISQFETLRGPESE
Turning to B2, the “stoichiometry N” value in data set [2] is 12 and 24.

In general, stoichiometry N refers to the number of molecules, sites or subunits per partner or assembly.

These data come from publication PMC4969574 (The EMBO Journal, 2016).
